Experimental data reported in IntAct's records for PubMed 18171471.

Target: fak1_chick PTK2 (UniProt Q00944)
Sequence (Q00944 whole entry): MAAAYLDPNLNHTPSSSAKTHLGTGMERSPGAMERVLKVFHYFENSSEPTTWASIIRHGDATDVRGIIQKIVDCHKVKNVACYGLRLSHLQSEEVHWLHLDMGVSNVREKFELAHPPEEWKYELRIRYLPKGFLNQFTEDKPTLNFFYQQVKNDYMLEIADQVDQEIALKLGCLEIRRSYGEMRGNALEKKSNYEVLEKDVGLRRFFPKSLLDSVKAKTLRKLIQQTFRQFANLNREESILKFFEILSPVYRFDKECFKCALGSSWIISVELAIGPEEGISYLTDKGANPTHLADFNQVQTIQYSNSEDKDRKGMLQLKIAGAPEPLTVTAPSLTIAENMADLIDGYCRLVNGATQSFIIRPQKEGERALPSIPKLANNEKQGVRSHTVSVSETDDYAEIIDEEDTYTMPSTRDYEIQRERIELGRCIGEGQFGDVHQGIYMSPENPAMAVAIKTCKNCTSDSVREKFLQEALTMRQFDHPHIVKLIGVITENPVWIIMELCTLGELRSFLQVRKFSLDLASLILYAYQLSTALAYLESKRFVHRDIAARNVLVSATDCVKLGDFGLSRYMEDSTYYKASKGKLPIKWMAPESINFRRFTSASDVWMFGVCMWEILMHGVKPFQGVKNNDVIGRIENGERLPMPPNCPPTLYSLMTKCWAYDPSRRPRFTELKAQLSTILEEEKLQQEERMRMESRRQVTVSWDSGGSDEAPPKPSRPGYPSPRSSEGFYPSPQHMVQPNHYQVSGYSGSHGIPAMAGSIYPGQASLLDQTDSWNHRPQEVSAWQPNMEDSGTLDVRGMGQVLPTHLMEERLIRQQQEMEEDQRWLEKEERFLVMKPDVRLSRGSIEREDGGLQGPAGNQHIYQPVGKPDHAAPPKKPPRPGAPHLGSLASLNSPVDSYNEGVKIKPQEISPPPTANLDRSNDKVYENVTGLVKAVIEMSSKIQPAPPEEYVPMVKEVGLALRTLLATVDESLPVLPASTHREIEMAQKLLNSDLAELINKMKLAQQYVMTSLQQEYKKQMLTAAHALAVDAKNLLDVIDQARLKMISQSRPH

Chain of Paxillin (Gallus gallus (Chicken)), P49024 D146A (P49024 whole entry D146A): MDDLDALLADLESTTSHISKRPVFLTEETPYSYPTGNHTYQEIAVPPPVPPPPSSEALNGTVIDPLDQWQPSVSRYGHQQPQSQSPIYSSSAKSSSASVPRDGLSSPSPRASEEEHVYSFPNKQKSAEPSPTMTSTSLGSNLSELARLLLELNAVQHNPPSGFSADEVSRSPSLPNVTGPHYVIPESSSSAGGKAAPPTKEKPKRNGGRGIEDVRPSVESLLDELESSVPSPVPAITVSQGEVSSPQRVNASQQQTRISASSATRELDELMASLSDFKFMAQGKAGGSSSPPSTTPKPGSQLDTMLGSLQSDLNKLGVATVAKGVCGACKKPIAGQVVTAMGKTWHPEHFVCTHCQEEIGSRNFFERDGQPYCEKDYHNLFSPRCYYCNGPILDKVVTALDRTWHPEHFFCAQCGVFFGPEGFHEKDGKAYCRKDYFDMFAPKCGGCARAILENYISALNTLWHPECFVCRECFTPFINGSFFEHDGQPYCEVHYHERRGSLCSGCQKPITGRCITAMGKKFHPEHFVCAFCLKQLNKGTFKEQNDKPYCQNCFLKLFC
Chain of Paxillin (Gallus gallus (Chicken)), P49024 D146A;D268A (P49024 whole entry D146A/D268A): as the sequence (P49024 whole entry D146A) above, with D268A counted along it

With “Paxillin (Gallus gallus (Chicken)), P49024 D146A” the “effect of a mutation on the interaction” value was “decreasing interaction”.
With “Paxillin (Gallus gallus (Chicken)), P49024 D146A;D268A” the “effect of a mutation on the interaction” value was “disrupting interaction”.
